Experimental data from patent US20080274959A1, “Actinomadura Chromoprotein, Apoprotein and Gene Cluster” (Wyeth, priority 2004, published 2008).

How the values were obtained:
[1] = target: T1, Human PGP (MDR1) (Homo sapiens, UniProt P08183); experiment: Transport by P-GP (MDR-1); assay type: cell-based; conditions: judged from IC50 in KB, KB-8-5, KB-V-1 cells
T1 construct: endogenous in cells; parental KB is P-GP negative
Source text: (§1) Human PGP (MDR1) is an ATP-dependent efflux pump which is capable of transporting many drugs across cell membranes. High level expression of this protein has been linked to multiple drug resistance of tumors. […] The protein component of the chromoprotein probably protects the chromophore from drug efflux mediated by MDR1, and may be responsible for the beneficial antitumor effects in colon cell lines which often express MDR1.

[2] = tested on: myelin basic protein; experiment: Specificity of digestion: myelin basic protein; assay type: biochemical
[3] = tested on: p21−/− cells; experiment: Sensitivity of isogenic cell lines, p21−/−; assay type: cell-based, human
Source text: (§2) The p53/p21 checkpoint monitors the integrity of the genome and blocks cell cycle progression in the event of DNA damage. Disruption of the checkpoint by deletion of the p21 gene results in failure to arrest in response to DNA damage ultimately leading to cell death through apoptosis. Since loss of this checkpoint is a hallmark of cancer cells, an isogenic pair of cell lines, wherein one pair of the cell line (p21+/+) has an intact p21 gene and one member (p21−/−) has a deletion in the p21 gene, can be used to screen for potential anti-tumor compounds by identifying molecules that preferentially induce apoptosis in p21-deficient cells.
(§3) The Actinomadura sp. 21G792 chromoprotein was added to an isogenic pair of cell lines (p21+/+ and p21−/−).

[4] = tested on: p21+/+ cells; experiment: Sensitivity of isogenic cell lines, p21+/+; assay type: cell-based, human; conditions: p21+/+ isogenic cell line; Mean ± SD, n = 3
Source text: as §2, §3

[5] = tested on: KB; experiment: IC50 against P-GP expressing cells: KB; assay type: cell-based; conditions: P-GP level −, mean of two independent experiments
Source text: as §1

[6] = tested on: MCF-7; experiment: Potency against human tumor cell lines: MCF-7; assay type: cell-based; conditions: MCF-7, Breast
[7] = target: bovine serum albumin (Bos taurus, UniProt P02769); experiment: Specificity of digestion: bovine serum albumin; assay type: biochemical; conditions: neutral/acidic protein
[8] = tested on: LoVo, HCT116, HT29, LOX, HN5 and PC-3 tumors; experiment: In vivo anti-tumor activity, subcutaneous human tumor xenografts; parameters: species or system athymic (nude) mice; conditions: intravenous in saline, further doses on days 5 and 9; all six xenograft models
Method: The human tumor cell lines or fragments LoVo (colon cancer); HCT116 (colon); HT29 (colon); LOX (melanoma); HN5 (head & neck); and PC-3 (prostate) were implanted under the skin of athymic (nude) mice and allowed to form a tumor mass. When the tumors reached a size of 90-200 mg, the saline control vehicle or various concentrations of the Actinomadura sp. 21G792 chromoprotein formulated in saline was administered intravenously to the mice. The mice received subsequent doses on days 5 and 9 and the relative tumor growth was observed. The results are shown in the graphs in FIG. 24 and FIG. 25. Inhibition of tumor growth of up to 80% for mice receiving the chromoprotein was observed.

[9] = tested on: HT29; experiment: Potency against human tumor cell lines: HT29; assay type: cell-based; conditions: HT29, Colon

Sequence of bovine serum albumin (P02769 25-607): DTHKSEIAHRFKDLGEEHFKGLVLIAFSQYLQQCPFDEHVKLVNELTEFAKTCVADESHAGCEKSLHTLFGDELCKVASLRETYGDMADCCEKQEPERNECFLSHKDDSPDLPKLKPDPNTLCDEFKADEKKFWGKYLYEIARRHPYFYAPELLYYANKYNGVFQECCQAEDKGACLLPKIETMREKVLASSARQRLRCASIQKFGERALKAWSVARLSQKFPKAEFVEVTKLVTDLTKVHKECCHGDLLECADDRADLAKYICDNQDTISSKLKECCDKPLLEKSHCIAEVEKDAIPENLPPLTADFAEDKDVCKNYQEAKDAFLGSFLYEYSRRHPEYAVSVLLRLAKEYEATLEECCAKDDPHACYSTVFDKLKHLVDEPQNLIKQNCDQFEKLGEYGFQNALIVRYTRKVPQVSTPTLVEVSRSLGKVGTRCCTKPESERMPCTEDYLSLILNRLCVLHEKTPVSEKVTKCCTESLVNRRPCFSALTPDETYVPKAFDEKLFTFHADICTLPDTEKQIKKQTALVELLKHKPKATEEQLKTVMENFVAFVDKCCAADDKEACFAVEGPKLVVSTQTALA
T1 sequence (P08183 whole entry): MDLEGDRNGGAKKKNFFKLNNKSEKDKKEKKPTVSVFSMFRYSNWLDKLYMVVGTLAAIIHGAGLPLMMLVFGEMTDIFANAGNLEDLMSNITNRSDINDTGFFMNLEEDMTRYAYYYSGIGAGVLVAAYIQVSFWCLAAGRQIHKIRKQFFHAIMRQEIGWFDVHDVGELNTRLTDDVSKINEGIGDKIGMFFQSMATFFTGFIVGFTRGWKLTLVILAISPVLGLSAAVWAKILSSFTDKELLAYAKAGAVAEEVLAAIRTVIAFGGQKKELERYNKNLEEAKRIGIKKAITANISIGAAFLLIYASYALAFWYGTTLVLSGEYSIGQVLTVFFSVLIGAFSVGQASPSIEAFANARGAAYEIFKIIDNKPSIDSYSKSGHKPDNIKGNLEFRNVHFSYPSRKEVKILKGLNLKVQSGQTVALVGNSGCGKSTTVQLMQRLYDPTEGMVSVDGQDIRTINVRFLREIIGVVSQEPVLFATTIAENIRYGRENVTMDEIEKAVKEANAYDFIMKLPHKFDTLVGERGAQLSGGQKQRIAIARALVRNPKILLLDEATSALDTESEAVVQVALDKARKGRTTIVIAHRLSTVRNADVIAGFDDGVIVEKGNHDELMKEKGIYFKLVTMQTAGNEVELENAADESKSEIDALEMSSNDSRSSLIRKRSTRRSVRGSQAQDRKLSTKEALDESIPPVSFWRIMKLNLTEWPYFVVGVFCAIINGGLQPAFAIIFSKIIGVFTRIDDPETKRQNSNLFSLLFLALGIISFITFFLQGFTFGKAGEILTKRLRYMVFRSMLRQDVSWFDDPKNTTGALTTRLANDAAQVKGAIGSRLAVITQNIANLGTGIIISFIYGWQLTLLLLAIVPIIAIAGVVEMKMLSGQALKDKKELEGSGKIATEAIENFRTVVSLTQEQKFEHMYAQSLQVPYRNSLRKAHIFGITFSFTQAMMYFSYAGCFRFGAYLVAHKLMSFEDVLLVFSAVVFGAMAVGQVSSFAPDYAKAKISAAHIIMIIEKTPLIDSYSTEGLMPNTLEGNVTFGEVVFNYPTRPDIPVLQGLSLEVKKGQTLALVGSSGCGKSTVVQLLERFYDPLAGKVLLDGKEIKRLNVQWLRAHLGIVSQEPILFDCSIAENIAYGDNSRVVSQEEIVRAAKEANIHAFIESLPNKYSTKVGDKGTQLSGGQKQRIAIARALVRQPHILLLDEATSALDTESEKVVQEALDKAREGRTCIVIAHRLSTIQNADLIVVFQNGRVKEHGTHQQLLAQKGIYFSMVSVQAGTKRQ

B1: Actinomadura sp. 21G792 chromoprotein: non-covalent complex of an apoprotein and a chromophore comprising a nine-membered enediyne, produced by Actinomadura sp. 21G792 (NRRL 30778) (protein)
chain: DTVTVNYDCVGYPSDIAVTIDAPATAGVGDTATFEVSSVVTTGAPQDLPAGEVVTDMAIVVGGAQSGTITASGLTNEATPAGQPVNMVGGEAQITFTSAGSVTFTPSTTTQVDNGAQCTVVGEAPVGATTVVS
[1]
  MDR1 substrate: poor MDR1 substrate
[2]
  cleavage of myelin basic protein: cleaves
[3]; IC50 p21+/+ versus p21−/−
  Selectivity Ratio: 13
[3]; p21−/− isogenic cell line, Mean ± SD, n = 3
  IC50: 7000 ± 2000 ng/mL
[3]; text statement of the selectivity
  IC50 higher for p21+/+ cells than for p21−/− cells: 13 fold
[4]
  IC50: 90000 ± 32000 ng/mL
[5]
  IC50: 10 ng/mL
[6]
  IC50: 2 ng/mL
[7]
  cleavage of bovine serum albumin: not neutral/acidic proteins such as bovine serum albumin
[8]
  Inhibition of tumor growth: up to 80%
[9]
  IC50: 8 ng/mL
